This note sets out measurements from patent US20220265769A1, “COMPOSITIONS AND METHODS OF TREATMENT FOR BREAST CANCER INVOLVING A NOVEL CAPER?-MLL1 COMPLEX” (Geisinger Health, priority 2019, published 2022).

The test system of assay [1] is T47D cells. As to the kind of experiment: Crystal violet assay / cell counts of T47D cells treated with cell penetrating peptides. To be noted: 5 μM peptide in media, 72 hrs. The format is cell-based, human. On the procedure:
FIG. 9. […] A) Amino acid sequences of CPP-RRM1-myc, and RRM3-(441-500)-myc (SEQ ID NO: 33) and CPP-RRM3 (441-500)-myc (SEQ ID NO: 32) peptides. The sequence of Penetratin is in grey, myc tag in light grey and RRM3 in black. B) Coomassie staining showing GST-tagged, purified proteins. C, D) Representative light microscopic images of crystal violet stained cells taken after 3 days of treatment with 5 uM CPP-RRM3 (441-500)-myc. E, F) Crystal violet assay of cell numbers during treatment with 5 uM CPP-RRM3 (441-500) myc. G) Quantification of total number of cells before and after 3 days of treatment with CPP RRM3. H, I, J) Representative light microscopic images of crystal violet stained T47D cells taken after 3 days of treatment with peptides listed at top. K, L, M) Crystal violet assay of number T47D cells over 3 days of treatment with peptides listed. N) Quantification of total number of T47D cells before and after 3 days of treatment.
(§1) Crystal violet assay/optical density method of cell quantitation: 5×10^5 cells were plated per well in 6-well tissue culture plates. At times indicated cells were washed with PBS and fixed for 10 minutes in a 10% formalin solution. Cells were then rinsed with distilled water and subsequently stained with 100 μl 0.1% crystal violet solution for 30 min. Stained cells were rinsed with water to remove the excess traces of the staining solution. Cell-associated crystal violet dye was extracted with 500 μl of 10% acetic acid. Aliquots were collected and optical density was measured at 590 nm wavelength. Each point on the curve shown represents 3 independent wells.
(§2) Cell counts for CPP treatments: Cells were plated in 6-well dishes and incubated with 5 μM concentration of peptides. At days noted, cells were trypsinized and counted using a hemocytometer.
Whether recombinant RRM3 conjugated with the Penetratin cell penetrating peptide (Dupont E, et al., Methods Mol Biol. 1324:29-37 (2015)) (FIGS. 9A, B) affects growth of T47D and PME cells was tested. Equal numbers of PME and T47D cells were seeded and incubated with 5 μM peptide in media for 72 hrs. […]

Assay [2] concerns PME cells. The assay is described as follows: Crystal violet assay / cell counts of primary mammary epithelial cells (PMEs) treated with cell penetrating peptides. To be noted: PME cells, 5 μM peptide in media, 72 hrs. The format is cell-based, human. On the procedure: as §1, §2
Whether recombinant RRM3 conjugated with the Penetratin cell penetrating peptide (Dupont E, et al., Methods Mol Biol. 1324:29-37 (2015)) (FIGS. 9A, B) affects growth of T47D and PME cells was tested. Equal numbers of PME and T47D cells were seeded and incubated with 5 μM peptide in media for 72 hrs. […] Compared to CPP-coupled RRM3, CPP-RRM1 and RRM3 had no effect (FIGS. 9H-N). […]

B1: RRM3: recombinant RRM3 (441-500)-myc peptide without Penetratin (SEQ ID NO: 33) (protein)
chain: GWDTEIKDDVIEECNKHGGVIHIYVDKNSAQGNVYVKCPSIAAAIAAVNALHGRWFAGKMTAAYVPEQKLISEEDL
modifications: RRM3-derived synthetic sequence
Turning to B1, the “number of breast cancer cells” value in assay [1] is “no effect”.

B2: CPP-RRM3: recombinant RRM3 (441-500) conjugated with the Penetratin cell penetrating peptide, myc tag (SEQ ID NO: 32) (protein)
chain: RQIKIWFQNRRMKWKKGWDTEIKDDVIEECNKHGGVIHIYVDKNSAQGNVYVKCPSIAAAIAAVNALHGRWFAGKMTAAYVPEQKLISEEDL
modifications: RRM3-derived synthetic sequence
On to B2, for which the “number of breast cancer cells” value is on record as “dramatically decreased” in assay [1] and “disrupts breast cancer cell growth” in assay [1] (listed as Cell-penetrating CAPERα RRM3). The “number of PMEs” value in assay [2] is recorded as “no effect”.
